We go through 1 molecule from patent publication US20090035266A1.

The target in this test is HLA-A2 molecules on T2 cells (human). In words: T2 cell HLA-A2 upregulation assay, flow cytometry, peptide 25 µg/ml; negative control. To be noted: remark: other sources report otherwise.

B1: CAP-7 peptide (peptide)
peptide: HLFGYSWYK
Take B1: the T2 binding (MFI) was 260 MFI.
